Here are results for two molecules from patent US20240374729A1 (published 2024).

The target of test [1] is T1, PRAME peptide on HLA-A*02:01 (human).
T1 peptide: SLLQHLIGL
As to the kind of experiment: killing.

For test [2], the target named is T2, PRAME peptide on HLA-A*02:02 (human).
T2 peptide: SLLQHLIGL
Description: cytokine release.

For test [3], the target named is T3, PRAME peptide on HLA-A*02:09 (human).
T3 peptide: SLLQHLIGL
Description: cytokine release.

The target of test [4] is T4, PRAME peptide on HLA-A*02:04 (human).
T4 peptide: SLLQHLIGL
As to the kind of experiment: cytokine release.

Test [5] concerns the target T5, NY-ESO-1 peptide on HLA-A*02:01 (human).
T5 peptide: SLLMWITQC
As to the kind of experiment: cytokine release.

B1: T23.8-2.1-027-004 (TCR, V domains shown)
Valpha: GQQLNQSPQSMFIQEGEDVSMNCTSSSIFNTWLWYKQDPGEGPVLLIALYKAGELTSNGRLTAQFGITRKDSFLNISASIPSDVGIYFCAGLADYGGSQGNLIFGKGTKLSVKP
Vbeta: DSGVTQTPKHLITATGQRVTLRCSPRSGDLSVYWYQQSLDQGLQFLIQYYNGEERAKGNILERFSAQQFPDLHSELNLSSLELGDSALYFCASSVWASGGYEQYFGPGTRLTVT
In the case of B1, the binding result in test [1], in test [2], in test [3] and in test [4] was “recognises” in each case.

B2: NY-ESO-1/LAGE-1 specific TCR of SEQ ID NOs 41 and 42 (TCR, V domains shown)
Valpha: QKEVEQNSGPLSVPEGAIASLNCTYSDRGSQSFFWYRQYSGKSPELIMFIYSNGDKEDGRFTAQLNKASQYVSLLIRDSQPSDSATYLCAADDKIIFGKGTRLHILP
Vbeta: DAGVIQSPRHEVTEMGQEVTLRCKPISGHDYLFWYRQTMMRGLELLIYFNNNVPIDDSGMPEDRFSAKMPNASFSTLKIQPSEPRDSAVYFCASSRGGSGYTFGSGTRLTVV
B2: the binding result in test [5] is listed as “recognises”.
